Source: the supplement of paper PMC10567573

B1: MLL5 (parent)
chain: TYLCERCQPRNLDKERAVLLQRRK

Variants of: B1
Experiment: protein stability index of a GFP-peptide fusion (GPS, HEK-293T) (PSI 1-6); higher = more stable
Details: c terminus: a fixed tail appended
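Note: lentivirally expressed fusions sorted by FACS into six bins by GFP to DsRed ratio, PSI derived from sequencing read proportions per bin multiplied by bin number.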

Protein stability index: each site, then its substitutions
R22: T 2.1, W 2.14, K 2.03, M 2.18, P 2.9, S 2.34, C 2.08, H 2.28, N 1.99, G 1.98, I 2.44, D 2.2, V 1.98, E 1.76
R23: E 1.72, G 2.1, H 2.05, L 1.47, F 2.03, K 2.91, W 2.39, S 2.35, D 1.76, Y 1.48, C 2.31, P 2.5
T1: G 1.82, K 2.48, F 1.27, M 1.39, D 2.73, Y 2.14, W 3.05, E 1.47, N 2.13, A 2.29, Q 2.14
P9: A 1.86, S 2.27, N 3.62, Q 3.16, V 2.36, Y 3.52, D 2.32, G 2.68, M 2.08, T 2.81, I 1.91, H 1.97, E 3.09, L 2.69
E5: W 2.4, H 2.12, D 2.87, I 2.47, A 1.91, S 2.23, Q 1.76, G 2.28, N 1.94, T 1.61, F 1.94, V 3.05, C 1.63, L 1.73
E15: G 2.71, S 2.46, W 1.94, T 2.32, F 2.14, L 2.05, C 1.45, P 2.12, R 2.34, I 2.2, D 2.42, N 1.6
Y2: L 2.78, E 2.4, M 2.53, D 2.78, R 2.88, G 2.78, N 2.43, K 3.44, Q 3.53
K24: W 3.28, Y 1.91, M 1.81, L 2.17, D 2.36, A 1.73, H 2.74, T 2.28
K14: S 2.51, H 1.74, D 1.98, Y 2.64, M 3.36, R 2.19, I 1.87, W 2.89, T 3.29, F 2.34, Q 2.23, A 2.29, G 1.77
C7: P 3.94, W 3.6, L 3.12, Q 3.65, G 3.59, R 4.03, M 3.2, E 4.89, T 4.37, V 3.32, D 4.49, N 3.93
N11: Y 1.43, C 2.11, F 1.9, E 1.52, K 2.05, H 2.82, D 2.02, P 2.18, W 2.09, I 1.68, S 2.32, M 2.04, L 2.12
Q21: N 2.42, G 2.91, I 1.73, V 1.84, K 2.64, R 2.51, S 1.99, T 1.81, E 2.09, M 2.46, H 3.22, Y 2.04
A17: H 2, Y 2.18, N 2.65, Q 1.88, C 2.08, P 1.77, K 2.26, M 2.58, S 2.32, G 1.78, F 2.07, L 1.45, V 2.42
C4: E 4.31, R 3.67, A 4.43, M 3.52, Q 3.56, V 3.12, W 2.6, H 3.36, F 2.61, K 3.15, P 4.26, S 3.95, N 3.9, T 4.07
R10: P 2.67, I 2.25, W 1.66, N 2.84, S 2.44, H 1.72, L 1.83, E 1.99, T 2.29, V 2.17, M 2.25, F 2.28, K 1.74, G 3.56, Y 2.04, D 2.25, A 2.28
R6: G 4.25, M 1.81, P 3.84, L 1.49, W 1.53, H 1.87, V 2.42, E 3.87, T 1.92, C 2.2, S 2.83, K 1.59, F 1.79, Y 2.83, I 2.07, D 2.93
V18: S 2.21, T 2.82, H 2.16, P 1.6, I 2.68, W 2.2, C 2.11, M 2.19, Q 2.19, L 3.05, E 2.52, F 1.96, R 3.18, D 2.73, A 1.81, N 1.93, Y 1.65
D13: E 3.13, K 2.71, V 1.88, H 2.64, C 2.24, Q 2.53, S 2.76, A 2.7, W 2.16, G 2.71, Y 2.48, N 2.47
L19: E 2.76, Q 2.54, D 2.42, T 2.07, P 1.85, V 1.96, K 2.18, M 2.71, R 2.52, A 1.76, Y 2.83, H 2.54, F 1.7, G 3.37
L20: T 1.58, H 2.23, E 2.7, W 2.31, Y 1.76, F 2.3, D 3.55, M 2.4, C 2.3, A 2.37, P 2.08, N 2.68, G 2.52, S 1.9
Q8: F 2.29, N 1.55, P 3.38, S 1.14, D 2.8, A 2.74, Y 1.5, K 2.05, C 1.38, T 2.72, G 2.36, W 4.94, I 1.79, E 2.42, R 2.44
R16: T 2.25, A 2.49, M 3.23, I 1.94, W 1.69, F 2.09, P 2.24, E 1.92, N 2.01, L 3.06, K 2.1, Y 1.79, C 1.45, S 1.36, H 2.61
L12: E 3.2, H 1.98, F 2.11, T 2.63, R 2.02, C 1.85, M 3.49, I 2.17, G 2.71, P 2.69, Y 1.71
L3: D 2.99, Y 2.56, E 3, Q 2.42, F 1.82, S 2.18, I 1.55, T 1.98, R 2.16, A 2.33, P 2.31, M 2.02, H 2.44, N 3.55
